The values below come from paper PMC11780864, “RNA G-quadruplex structure-based PROTACs for targeted DHX36 protein degradation and gene activity modulation in mammalian cells”.

The target in data set [1] is T1, RHAU53 peptide (DHX36 fragment) (UniProt Q9H2U1).
T1 chain: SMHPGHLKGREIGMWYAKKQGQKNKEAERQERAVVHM
Nature of the data set: EMSA; Kd1, first shift; EMSA and MST: 25 mM Tris-HCl pH 7.5, 150 mM KCl, 1 mM MgCl2, 37 C 30 min; 30 nM (EMSA) or 40 nM (MST) FAM-oligo; EMSA gel 10% native PAGE, 0.5x TBE, 4 C. Particulars: label: 3'-FAM; G4. (A gel shift assay detects complexes by their altered migration in electrophoresis.)

For data set [2], the target named is T1, RHAU53 peptide (DHX36 fragment). Description: EMSA; EMSA and MST: 25 mM Tris-HCl pH 7.5, 150 mM KCl, 1 mM MgCl2, 37 C 30 min; 30 nM (EMSA) or 40 nM (MST) FAM-oligo; EMSA gel 10% native PAGE, 0.5x TBE, 4 C. Conditions: label: 3'-FAM; for binding result: non-G4.
For data set [3] the target is unchanged. Description: competition; EMSA vs 30 nM FAM_dG4_A, 100 nM RHAU53; EMSA and MST: 25 mM Tris-HCl pH 7.5, 150 mM KCl, 1 mM MgCl2, 37 C 30 min; 30 nM (EMSA) or 40 nM (MST) FAM-oligo; EMSA gel 10% native PAGE, 0.5x TBE, 4 C. Particulars: G4.

B1: FAM_rG4_P_PEG2 (structured_RNA)
RNA: GGGUUGCGGAGGGUGGGCCU
modifications: 5'-hexynyl clicked to pomalidomide-PEG2
B1: in data set [1], the Kd worked out at 132 ± 25.5 nM.

B2: FAM_rG4_A_PEG2 (FAM_rG4_A) (structured_RNA)
RNA: GGGUUGCGGAGGGUGGGCCU
modifications: 5'-hexynyl clicked to AHPC-PEG2 (VHL ligand)
With B2, the Kd in data set [1] came to 67.5 ± 13.2 nM.

B3: FAM_rG4_P_PEG1-C2 (structured_RNA)
RNA: GGGUUGCGGAGGGUGGGCCU
modifications: 5'-hexynyl clicked to pomalidomide-PEG1-C2
With B3, the Kd in data set [1] came out at 174 ± 35.3 nM.

B4: FAM_rG4_A_C6 (structured_RNA)
RNA: GGGUUGCGGAGGGUGGGCCU
modifications: 5'-hexynyl clicked to AHPC-C6
In the case of B4, the Kd in data set [1] came out at 70.3 ± 9.3 nM.

B5: FAM_rG4_P_C6 (structured_RNA)
RNA: GGGUUGCGGAGGGUGGGCCU
modifications: 5'-hexynyl clicked to pomalidomide-C6
For the molecule B5, the Kd in data set [1] is 160 ± 26.2 nM.

B6: FAM_dG4_A (T95-2T) (structured_DNA)
DNA: TTGGGTGGGTGGGTGGGT
modifications: 5'-hexynyl clicked to AHPC-PEG2
With B6, the Kd in data set [1] is 317 ± 45.1 nM.

B7: FAM_rG4 (5' Hexynyl_hTERC rG4 WT_3' FAM) (structured_RNA)
RNA: GGGUUGCGGAGGGUGGGCCU
modifications: 5'-hexynyl
B7 returned a Kd in data set [2] (G4) of 66.7 ± 16.5 nM.

B8: FAM_dG4 mut_A (ssDNA)
DNA: TTGTGTGTGTGTGTGTGT
modifications: 5'-hexynyl clicked to AHPC-PEG2
Regarding B8, in data set [2], the binding result was “no binding”.

B9: FAM_rG4 mut_A (ssRNA)
RNA: GAGUUGCGGAGAGUGAGCCU
modifications: 5'-hexynyl clicked to AHPC-PEG2
As to B9, the binding result in data set [2] is listed as “no binding”.

B10: rG4_A (unlabelled) (structured_RNA)
RNA: GGGUUGCGGAGGGUGGGCCU
modifications: 5'-hexynyl clicked to AHPC-PEG2
As to B10, in data set [3], the IC50 was 176.8 ± 1 nM.

In general, Kd refers to the constant that tells how readily two partners part at equilibrium. Usually IC50 stands for the concentration at which inhibition is half-maximal.
